Tested on: MS2 coat protein
Test: apparent KD of MS2 coat protein; designed switch direction (-1 OFF switch, 1 ON switch): -1; higher = weaker reporter binding
How it was run: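 Normalised cluster fluorescence was curve-fitted, and each design's median over clusters is its apparent KD. Before this, SNAP-549-labelled MS2 coat protein was titrated from 0.7 or 1.5 nM, doubling to 3 µM, over RNA switches transcribed on Illumina chips by stalled E. coli RNA polymerase. Titrations had no input, 200 uM small-molecule ligand, or an oligonucleotide input, and steps lasted 0.8–1.5 h (lowest) to 10–20 min (highest).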

[1] = Eterna round: R95, input ligand: microRNA oligo, concentration not stated
[2] = Eterna round: R95, input ligand: FMN 200 uM
[3] = Eterna round: R95, input ligand: none
[4] = input ligand: microRNA oligo, concentration not stated

Row | Sequence | apparent KD of MS2 coat protein (input ligand: FMN 200 uM) [nM] | apparent KD of MS2 coat protein (input ligand: none) [nM] | apparent KD of MS2 coat protein [1] [nM] | apparent KD of MS2 coat protein [2] [nM] | apparent KD of MS2 coat protein [3] [nM] | apparent KD of MS2 coat protein [4] [nM]
1 | UAUUAGCAAGCAAAUGGGUACAUGAGGAUCACCCAUGUGCUCGUCUUAUAAGGUACUGUGACGAACGUCACGGUACC [mod--Eli5] (Eterna round: R97, puzzle: Sensor, turn-off variant 1) | 27.8 | 26.8 | – | – | – | –
2 | UAUUAGCAAGCAAGAUCCUACAUGAGGAUCACCCAUGUGCUCGUCUUAAACGCAGAAUUACUGCGAGCUCGUCUUAU [Winner reversed engineered 25] (Eterna round: R97, puzzle: Sensor, turn-off variant 1) | 579 | 849 | – | – | – | –
3 | UAUUAGCUAGGAUAUACAUGAGGAUCACCCAUGUCACGGGUCCACUCAUCCUAUGCGUGUAGAAGGAGCGACCC [JL Ceriza mod 1] (puzzle: Exclusion 3) | – | – | 23.6 | – | – | –
4 | UAUUAGCUAGGAUAUACAUGAGGAUCACCCAUGUCACGGGUCCACUCGUCCUAUGCGUGUAGAAGGAGCGACCC [JL Ceriza mod 2] (puzzle: Exclusion 3) | – | – | 20.6 | – | – | –
5 | UAUUAGCUUGCGAGAUCCGACAUGAGGAUCACCCAUGUGCUCGUCUUAUAUGGGAGGGAGGGAAAACCCUCCCUCCC [mod-Eli] (Eterna round: R97, puzzle: Sensor, turn-off variant 1) | 23.8 | 25.4 | – | – | – | –
6 | UAUUAGUAAGGAUAUCCUUGCAUGGACGAAAGUCCAUGCAAGGAGAAGGUACAUGAGGAUCACCCAUGUUUAUU [Mod of Fisker 15 - Jieux - Exclusion 4] (Eterna round: R97, puzzle: Exclusion 4) | 18 | 17.4 | – | – | – | –
7 | UAUUAGUGAGGAUAUGGUAUAGAUAAGAUGAUGAAAGAACUCCAGAAGGCACAUGAGGAUCACCCAUGUAGUAG [JL-ex4-2.08 Jieux mod] (puzzle: Exclusion 4) | – | – | 23.7 | 20.4 | 20.9 | –
8 | UAUUUACAUGAGGAUCACCCAUGUCAGGAUAUGCUCGAUAUAUGGAAACAUAUAUCGAGCAGAAGGGACUAGCG [Jieuxxlusion 7 - Jieux - Exclusion 1] (Eterna round: R97, puzzle: Exclusion 1) | 152 | 72.7 | – | – | – | –
9 | UAUUUAUAUGAAGGAUAUACUUAACAUGAGGAUCACCCAUGUGGUGUUGUGAGUGAGUGAGUUUAGUAGAAGGUCAAUUCUUUU [JMF's solution 96] (Eterna round: R96, puzzle: Exclusion NG 2) | 893 | 448 | – | – | – | 415
10 | UCAAACAUCGUUAGGAUAUGCUGGACUAAAUAGUGGCAGAAGGAACAUGAGGAUCACCCAUGUGCCUCGAUUGC [Eternabot (L2) Solution 26] (Eterna round: R97, puzzle: Brourd's mod of Exclusion 4) | 17.4 | 13.4 | – | – | – | –
11 | UCAAGCUUUAAGCGCGUGAACAUGAGGAUCACCCAUGUAUUUCGGGUUUUGGUUUUUUGUAUGGGUUCUUGUCUUAU [JR_SWV3TOV1_Sub096] (puzzle: Sensor v3, turn-off variant 1) | – | – | 19.2 | 39.2 | 41.8 | –
12 | UCAAGUAUGUAGGAUAUCGAUGUCCUCGGACAUCGAGAAGGACGUACAUGAGGAUCACCCAUGUAACUUGCAUG [Exclusion 6 - B - 10:b] (puzzle: Exclusion 6) | – | – | 44.3 | – | – | –
13 | UCACACGGAGGAUAUACCGUCGGUCAUUGGUGUGACGUAUCACAUGAGGAUCACCCAUGUAGAAGGCCGUGCUU [Eternabot (L2) Solution 14] (Eterna round: R97, puzzle: Exclusion 2) | 394 | 208 | – | – | – | –
14 | UCACGGGACUGAGGAUAUACAUGAACCAUGGUUGUAGAAGGCAGAAGGUUGGAUCAUACACUAAACAUGAGGAUCACCCAUGUU [JR_ExcNG1_Sub028] (Eterna round: R96, puzzle: Exclusion NG 1) | 16.4 | 21.8 | – | – | – | 15.7
15 | UCACGGGACUGAGGAUAUACAUGAACCAUUUUUGUAGAAGGCAGAAUGUUAGAUCAUACACUAAACAUGAGGAUCACCCAUGUU [JR_ExcNG1_Sub025] (Eterna round: R96, puzzle: Exclusion NG 1) | 15.1 | 19.7 | – | – | – | 18.8
16 | UCACGGGACUGAGGAUAUACAUUUAUUAUUUUAGUAGAAGGCAGAAAGUUAGUUUUUUCACUAUACAUGAGGAUCACCCAUGUU [JR_ExcNG1_Sub085] (Eterna round: R96, puzzle: Exclusion NG 1) | 21.2 | 29.1 | – | – | – | 20.4
17 | UCACGUUAGGAGGAUAUCGAUCCAUUAGCGCGACGAGAAGGCCUGACAUGAGGAUCACCCAUGUGGUCAAACAA [Bexelaar] (puzzle: Exclusion 6) | – | – | 265 | 52.1 | 158 | –
18 | UCAGGCGAUGUCAGGAUAUCGGCUGCCCAAUUGGCUGAGAAGGGACAUGAGGAUCACCCAUGUUAGAUCCAGCC [BmEX4 A.25] (Eterna round: R97, puzzle: Brourd's mod of Exclusion 4) | 30.2 | 16.9 | – | – | – | –
19 | UCAUGGUAGCAGGAUAUGCUAGAAAUUUUUUAUGCAGAAGGGCUUACAUGAGGAUCACCCAUGUGUUAGGUCUA [JR_E6_Sub070] (puzzle: Exclusion 6) | – | – | 50.8 | 47.2 | 48.5 | –
20 | UCAUGGUAGCAGGAUAUGCUUGUAAUUUUUUUUGCAGAAGGGCUUACAUGAGGAUCACCCAUGUGUUAGGUCUA [JR_E6_Sub068] (puzzle: Exclusion 6) | – | – | 30.7 | – | – | –
21 | UCAUGUAUGUAGGAUAUCGAUGUCCUUGGACAUCGAGAAGGACGUACAUGAGGAUCACCCAUGUAACUUGCAUG [Exclusion 6 - B - 11:d] (puzzle: Exclusion 6) | – | – | 18.7 | – | – | –
22 | UCAUGUAUGUAGGAUAUCGAUGUCUGCGGACAUCGAGAAGGACGUACAUGAGGAUCACCCAUGUAACUUGCAUG [Exclusion 6 - B - 11:e] (puzzle: Exclusion 6) | – | – | 17.8 | 31.9 | 13.1 | –
23 | UCAUGUCCUGAGGAUAUGUAGCGGAUAAACGCAACAGAAGGCAGGACAUGAGGAUCACCCAUGUGUGCCUUCCA [Exclusion 6 Mod of JL of Mod of Letion by ViennaUCT] (Eterna round: R97, puzzle: Exclusion 6) | 8.14 | 113 | – | – | – | –
